Biological target: T1, human prolactin receptor (PRLR), full length on cells (human) (UniProt P16471)
T1 sequence: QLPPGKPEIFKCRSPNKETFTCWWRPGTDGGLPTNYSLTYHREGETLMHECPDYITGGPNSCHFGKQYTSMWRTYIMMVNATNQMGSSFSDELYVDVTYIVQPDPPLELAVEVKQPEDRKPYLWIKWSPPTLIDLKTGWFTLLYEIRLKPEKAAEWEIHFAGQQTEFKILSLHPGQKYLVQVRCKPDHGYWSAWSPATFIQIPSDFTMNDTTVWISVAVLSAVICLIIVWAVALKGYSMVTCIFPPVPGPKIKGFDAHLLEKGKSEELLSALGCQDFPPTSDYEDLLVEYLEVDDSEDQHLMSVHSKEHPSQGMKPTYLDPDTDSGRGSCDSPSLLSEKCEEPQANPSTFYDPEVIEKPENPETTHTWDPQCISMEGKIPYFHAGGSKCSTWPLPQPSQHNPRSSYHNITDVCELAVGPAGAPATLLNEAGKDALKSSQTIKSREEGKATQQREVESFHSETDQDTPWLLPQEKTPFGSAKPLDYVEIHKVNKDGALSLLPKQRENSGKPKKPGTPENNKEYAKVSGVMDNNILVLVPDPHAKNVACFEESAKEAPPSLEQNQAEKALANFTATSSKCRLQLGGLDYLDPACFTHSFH
Experiment: flow cytometry on CHO-K1 cells expressing human PRLR (clone 1G5)

MFI: 33.8
Substance: mAb 1167, control murine anti-PRLR monoclonal antibody (R&D Systems, catalog #MAB1167)

Reference: patent publication US20080292620A1
